Measurements as given in the supplement of paper PMC10567573.

B1: JUNB (parent)
chain: FVKALDDLHKMNHVTPPNVSLGAT

Variants of: B1
Experiment: protein stability index of a GFP-peptide fusion (GPS, HEK-293T) (PSI 1-6); higher = more stable
Settings: c terminus: a fixed tail appended
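Further: lentivirally expressed fusions sorted by FACS into six bins by GFP to DsRed ratio, PSI derived from sequencing read proportions per bin multiplied by bin number.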

Point of comparison: FVKALDDLHKMNHVRPPNVSLGAT, protein stability index 2.24. Against it:
- FVKALDDLCKMNHVTPPNVSLGAT — lower, 2.04
- FVKALDDLYKMNHVTPPNVSLGAT — lower, 1.54
- FVKALDDLFKMNHVTPPNVSLGAT — higher, 3.03
- FVKALDDLSKMNHVTPPNVSLGAT — higher, 2.57
- FVKALDDLRKMNHVTPPNVSLGAT — lower, 1.66
- FVKALDDLLKMNHVTPPNVSLGAT — lower, 1.44
- FVKALDDLIKMNHVTPPNVSLGAT — lower, 1.29
- FVKALDDLKKMNHVTPPNVSLGAT — lower, 1.9
- FVKALDDLTKMNHVTPPNVSLGAT — lower, 2.15
- FVKALDDLNKMNHVTPPNVSLGAT — lower, 1.72
- FVKALDDLAKMNHVTPPNVSLGAT — lower, 1.86
- FVKALDDLPKMNHVTPPNVSLGAT — lower, 1.69
- FVKALDDLQKMNHVTPPNVSLGAT — lower, 1.34
- FVKALDDLMKMNHVTPPNVSLGAT — higher, 2.64
- FVKALDDLDKMNHVTPPNVSLGAT — lower, 2.05
- FVKALDDLGKMNHVTPPNVSLGAT — lower, 1.97
- FVKALDDLWKMNHVTPPNVSLGAT — higher, 4.16
- FVKALDDLVKMNHVTPPNVSLGAT — lower, 1.79
- FVKALDDLHKMNHRTPPNVSLGAT — lower, 1.84
- FVKALDDLHKMNHNTPPNVSLGAT — lower, 1.89
- FVKALDDLHKMNHWTPPNVSLGAT — higher, 2.7
- FVKALDDLHKMNHATPPNVSLGAT — the same, 2.24
- FVKALDDLHKMNHPTPPNVSLGAT — lower, 1.46
- FVKALDDLHKMNHYTPPNVSLGAT — lower, 1.19
- FVKALDDLHKMNHDTPPNVSLGAT — lower, 1.87
- FVKALDDLHKMNHETPPNVSLGAT — lower, 1.93
- FVKALDDLHKMNHMTPPNVSLGAT — lower, 1.51
- FVKALDDLHKMNHCTPPNVSLGAT — higher, 2.3
- FVKALDDLHKMNHKTPPNVSLGAT — lower, 1.53
- FVKALDDLHKMNHGTPPNVSLGAT — higher, 2.37
- FVKALDDLHKMNHSTPPNVSLGAT — lower, 1.43
- FVKALDDLHKMNHITPPNVSLGAT — lower, 1.82
- FVKALDDLHKMNHHTPPNVSLGAT — lower, 1.78
- FVKALDDLHKMNHLTPPNVSLGAT — lower, 1.88
- FVKALDDLHKMNHFTPPNVSLGAT — lower, 1.8
- FVKALDDLHKMNHQTPPNVSLGAT — higher, 2.26
- FVKALDDLHKMNHTTPPNVSLGAT — lower, 1.82
- FVKALDDLHKMNHVTPWNVSLGAT — higher, 3.22
- FVKALDDLHKMNHVTPYNVSLGAT — higher, 3.73
- FVKALDDLHKMNHVTPVNVSLGAT — lower, 1.71
- FVKALDDLHKMNHVTPNNVSLGAT — lower, 1.8
- FVKALDDLHKMNHVTPANVSLGAT — lower, 1.89
- FVKALDDLHKMNHVTPENVSLGAT — lower, 1.48
- FVKALDDLHKMNHVTPHNVSLGAT — lower, 1.89
- FVKALDDLHKMNHVTPSNVSLGAT — lower, 1.83
- FVKALDDLHKMNHVTPLNVSLGAT — lower, 1.37
- FVKALDDLHKMNHVTPTNVSLGAT — lower, 1.62
- FVKALDDLHKMNHVTPKNVSLGAT — higher, 2.64
- FVKALDDLHKMNHVTPFNVSLGAT — higher, 2.56
- FVKALDDLHKMNHVTPCNVSLGAT — lower, 2.08
- FVKALDDLHKMNHVTPINVSLGAT — lower, 1.81
- FVKALDDLHKMNHVTPMNVSLGAT — higher, 2.35
- FVKALDDLHKMNHVTPGNVSLGAT — lower, 1.56
- FVKALDDLHKMNHVTPDNVSLGAT — lower, 1.97
- FVKALDDLHKMNHVTPRNVSLGAT — lower, 1.44
- FVKALDDLHKMNHVTPQNVSLGAT — lower, 2.21
- FVKALDDLHKMNHVMPPNVSLGAT — higher, 2.3
- FVKALDDLHKMNHVKPPNVSLGAT — lower, 2.09
- FVKALDDLHKMNHVYPPNVSLGAT — lower, 1.67
- FVKALDDLHKMNHVLPPNVSLGAT — lower, 2.03
- FVKALDDLHKMNHVDPPNVSLGAT — lower, 1.9
- FVKALDDLHKMNHVCPPNVSLGAT — lower, 2.06
- FVKALDDLHKMNHVAPPNVSLGAT — higher, 2.79
- FVKALDDLHKMNHVVPPNVSLGAT — lower, 1.6
- FVKALDDLHKMNHVFPPNVSLGAT — lower, 1.69
- FVKALDDLHKMNHVWPPNVSLGAT — lower, 1.51
- FVKALDDLHKMNHVHPPNVSLGAT — lower, 2.12
- FVKALDDLHKMNHVIPPNVSLGAT — lower, 1.59
- FVKALDDLHKMNHVEPPNVSLGAT — lower, 1.45
- FVKALDDLHKMNHVQPPNVSLGAT — lower, 2.06
- FVKALDDLHKMNHVSPPNVSLGAT — lower, 1.92
- FVKALDDLHKMNHVNPPNVSLGAT — lower, 1.84
- FVKALDDLHKMNHVPPPNVSLGAT — lower, 2.18
- FVKALDDLHKMNHVGPPNVSLGAT — lower, 2.04
- FVKALDDLHKMNHVTLPNVSLGAT — lower, 1.53
- FVKALDDLHKMNHVTWPNVSLGAT — lower, 1.92
- FVKALDDLHKMNHVTRPNVSLGAT — lower, 1.6
- FVKALDDLHKMNHVTHPNVSLGAT — lower, 1.81
- FVKALDDLHKMNHVTKPNVSLGAT — lower, 1.79
- FVKALDDLHKMNHVTCPNVSLGAT — higher, 2.48
- FVKALDDLHKMNHVTFPNVSLGAT — higher, 2.55
- FVKALDDLHKMNHVTMPNVSLGAT — lower, 1.68
- FVKALDDLHKMNHVTVPNVSLGAT — lower, 1.86
- FVKALDDLHKMNHVTGPNVSLGAT — lower, 1.9
- FVKALDDLHKMNHVTAPNVSLGAT — lower, 1.94
- FVKALDDLHKMNHVTTPNVSLGAT — higher, 2.34
- FVKALDDLHKMNHVTSPNVSLGAT — lower, 1.78
- FVKALDDLHKMNHVTQPNVSLGAT — lower, 2.11
- FVKALDDLHKMNHVTEPNVSLGAT — higher, 2.55
- FVKALDDLHKMNHVTDPNVSLGAT — lower, 1.76
- FVKALDDLHKMNHVTYPNVSLGAT — lower, 1.64
- FVKALDDLHKMNHVTIPNVSLGAT — lower, 1.58
- FVKALDDLHKMNHVTNPNVSLGAT — lower, 1.14
